Source: patent US20210214413A1

Target: rhinovirus C15 virus (recombinant RV-C isolate C15, sucrose purified) (rhinovirus C15)
Assay: HeLa-expressed protein recovered by α-His IP, denatured and refolded, reacted with C15 virus, α-His IP, Western blot

B1: pHL-FLAG-CDHR3-His EC1-3 (1-345), HeLa-expressed (receptor)
chain: DYKDDDDKLHLILLPATGNVAENSPPGTSVHKFSVKLSASLSPVIPGFPQIVNSNPLTEAFRVNWLSGTYFEVVTTGMEQLDFETGPNIFDLQIYVKDEVGVTDLQVLTVQVTDVNEPPQFQGNLAEGLHLYIVERANPGFIYQVEAFDPEDTSRNIPLSYFLISPPKSFRMSANGTLFSTTELDFEAGHRSFHLIVEVRDSGGLKASTELQVNIVNLNDEVPRFTSPTRVYTVLEELSPGTIVANITAEDPDDEGFPSHLLYSITTVSKYFMINQLTGTIQVAQRIDRDAGELRQNPTISLEVLVKDRPYGGQENRIQITFIVEDVNDNPATCHHHHHH
In the case of B1, the Binding % after refolding, relative to the same protein not refolded is reported as 213%.
